From US20240076389A1 (NATIONAL RESEARCH COUNCIL OF CANADA, published 2024)
Where a chain is given by its changes, count along the chain named.

T1: AXL fragment # 3 (AXL amino acids 26-138, IgL1)
T1 chain: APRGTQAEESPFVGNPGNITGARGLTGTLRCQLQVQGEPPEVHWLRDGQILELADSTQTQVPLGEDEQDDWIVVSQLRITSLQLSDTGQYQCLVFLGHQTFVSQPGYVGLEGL

T2: huTyro3-ECD displayed on yeast (human, UniProt Q06418 41-429)
T2 construct: extracellular domain
T2 sequence (looked up): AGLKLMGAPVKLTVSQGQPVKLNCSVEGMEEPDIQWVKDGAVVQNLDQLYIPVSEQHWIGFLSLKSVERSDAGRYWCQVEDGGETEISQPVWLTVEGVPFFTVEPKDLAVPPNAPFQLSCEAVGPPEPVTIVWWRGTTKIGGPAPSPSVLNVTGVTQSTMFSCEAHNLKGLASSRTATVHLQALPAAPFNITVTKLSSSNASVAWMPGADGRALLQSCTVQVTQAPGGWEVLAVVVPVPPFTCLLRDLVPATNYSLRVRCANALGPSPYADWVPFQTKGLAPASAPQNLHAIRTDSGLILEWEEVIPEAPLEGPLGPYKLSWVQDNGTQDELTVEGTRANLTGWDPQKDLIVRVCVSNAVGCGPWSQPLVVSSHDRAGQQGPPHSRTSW

T3: rhMER-ECD (human, UniProt Q12866 21-505)
T3 construct: extracellular domain
T3 sequence (looked up): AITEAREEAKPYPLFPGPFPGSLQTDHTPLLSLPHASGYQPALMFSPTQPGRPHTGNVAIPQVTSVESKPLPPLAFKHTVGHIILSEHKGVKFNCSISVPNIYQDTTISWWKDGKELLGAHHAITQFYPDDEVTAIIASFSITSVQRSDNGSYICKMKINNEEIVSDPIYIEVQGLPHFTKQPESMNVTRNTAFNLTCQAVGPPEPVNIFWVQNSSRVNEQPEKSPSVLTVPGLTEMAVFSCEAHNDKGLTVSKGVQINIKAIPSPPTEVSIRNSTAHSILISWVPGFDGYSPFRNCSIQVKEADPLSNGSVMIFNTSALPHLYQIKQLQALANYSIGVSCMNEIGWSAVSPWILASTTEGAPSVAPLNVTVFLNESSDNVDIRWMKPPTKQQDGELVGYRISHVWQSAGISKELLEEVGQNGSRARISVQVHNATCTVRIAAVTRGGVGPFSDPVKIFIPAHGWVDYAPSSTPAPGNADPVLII

T4: rhTyro-3 (human, UniProt Q06418 41-429)
T4 construct: extracellular domain
T4 sequence (looked up): T2 sequence (looked up)

T5: AXL fragment # 7 (AXL amino acids 135-335, IgL2+FN III-1)
T5 chain: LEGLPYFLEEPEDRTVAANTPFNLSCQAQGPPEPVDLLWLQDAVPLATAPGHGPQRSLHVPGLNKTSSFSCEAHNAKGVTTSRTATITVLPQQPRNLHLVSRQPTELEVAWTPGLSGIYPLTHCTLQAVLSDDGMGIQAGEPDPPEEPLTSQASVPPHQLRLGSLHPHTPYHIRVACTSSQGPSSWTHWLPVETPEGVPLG

T6: AXL fragment # 1 (AXL amino acids 135-226, IgL2)
T6 chain: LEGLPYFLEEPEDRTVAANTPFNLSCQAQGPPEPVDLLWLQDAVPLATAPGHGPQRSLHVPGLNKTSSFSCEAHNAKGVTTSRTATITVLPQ

B1: F111-5E9 (antibody, V domains shown)
VH: QIQLVQSGPELKKPGETVKISCKASGYTFTKYGMNWVKQAPGKGLKWMGWINTYTGEPTYADDFKGRFAFSLETSASTAYLQINNLTTEDMVTYFCAKGGYYSNPIYPMDYWGQGTSVTVSS
VL: DIQMTQTTSSLSASLGDRVTISCRASQDINNYLNWYQQKPDGTVKLLIYYISRLHSGVPSRFSGSGSGTDYSLTISNLELEDVATYFCQQGNTLPFTFGSGTKLEIK
notes: also called F111-5E9-2; mAb 5E9
B2: F111-3C8 (antibody, V domains shown)
VH: QVQLQQPGAELGKPGTSVKLSCKASGYTFTSYWMHWVKRVPGQGLEWIGNINPNSTSADYNEKFKRKATLTVDKSSSTAYMQLSTLTSEDSAVYYCTRPLMGPYWYFDVWGTGTTVTVSS
VL: QIVLTQSPAIMSASPGEKVTISCSASSSVSYMYWYQQKPGSSPKPWIYRTSNLASGVPARFSGSGSGTSYSLTISSMEAEDAATYYCQQYHNYPPTFGGGTKLEIK
notes: also called F111-3C8-2
B3: NRC-sdAb001-Fc (VHH-human IgG1 Fc fusion) (Fc fusion)
chain: QVKLEESGGGLVQAGGSLRLSCTASASISSFDIMGWYRQAPGKQRELVAAITTLDIANYRDSVKGRFTISRDNAKNTVYLQMDSLKPEDTARYHCAAFQSDQNYWGQGTQVTVSS
notes: VHH fused N-terminally to human IgG1 Fc, made in HEK293 cells; also called NRC-sdAb0001-Fc; NRC-sdAb001-hIgG1; not shown: human IgG1 Fc
B4: hFC-F107-10G1 (antibody, human IgG1, kappa, V domains shown)
VH: EVNLVESGGGVVKPGASLKLSCEASGFTFSNYGMSWVRQTSDKRLEWVASISGGGGRTYYLDNVKGRFIISRENAKNTLYLQMSSLKSEDTALFYCARGARASYFAMDYWGQGSSVTVSS
VL: VIVMTQSHKFMSTSVGDRVSITCKASQDVTTAVAWYQQKPGQSPKLLIYWASTRHTGVPDRFTGSGSGTDYSLTISNVQTEDLAFYYCQQHFTTPLTFGAGTKLELKR
notes: Chimeric mAb, human IgG1 / human kappa constant regions; also called mAb F107-10G1
B5: F107-8D12 (antibody, V domains shown)
VH: QVQLQQPGAELVKPGASVQLSCKASGYTFISFWINWVKQRPGQGLEWMGNIFPGSSSTNYNEKFKSKATLTVDKSSSTAYMQLSSLTSEDSAVYFCARDYYGGSPDYWGQGTTLTVSS
VL: DIVMSQSPSSLAVSAGERVTMSCKSSQSLLNTRTRKNYLAWYQQKPGQSPKLLIYWASTRESGVPDRFTGSGSGTDFTLTISSVQAEDLAVYYCKQSYNLWTFGGGTKLEIK
notes: also called F107-8D12-2; mAb 8D12
B6: F107-7H5 (antibody, V domains shown)
VH: QVQLQQPGAELVKPGASVKLSCKASGYTFTSYWINWVKQRPGQGLEWIGNIYPDSSSTNYNEKFKSKATLTVDKSSTTAYIQFSSLTSEDSAVYYCTRDTYGGSPDYWGQGTTLTVSS
VL: B5 VL with R18K, T32S, N37I, E61Q
notes: also called F107-7H5-2; mAb 7H5
B7: F107-10G1 (antibody, V domains shown)
VH: B4 VH
VL: VIVMTQSHKFMSTSVGDRVSITCKASQDVTTAVAWYQQKPGQSPKLLIYWASTRHTGVPDRFTGSGSGTDYSLTISNVQTEDLAFYYCQQHFTTPLTFGAGTKLELK
notes: also called F107-10G1-3

Target: T1, AXL fragment # 3 (AXL amino acids …)
Assay: yeast surface display of hAXL fragments, whole yeast cell ELISA, signal normalised to anti-MYC
From the text: (§1) Epitope mapping. […] The YSD vector (pPNL6) was from The Pacific Northwest National Laboratory, USA.

binding result | Binder
no binding | B1
no binding | B2

Target: T7, cyAXL-ECD displayed on yeast
T7 construct: extracellular domain; 'cy' read as cynomolgus
Assay: yeast surface display ELISA, non-denatured yeast, goat anti-human F(ab')2-HRP

yeast ELISA signal normalized to myc expression level | Binder
0.824 | B3
1.14 | B4

Target: T2, huTyro3-ECD displayed on yeast
Assay: as above

yeast ELISA signal normalized to myc expression level | Binder
0.017 | B3
-0.023 | B4

Target: T3, rhMER-ECD
Assay: ELISA, antigen coated at 5 µg/ml, mAb 10 µg/ml
Experimental: (§2) To evaluate the cross-reactivity of the mAb to other members of the TAM receptor tyrosine kinase subfamily, binding of the mAb to rhAXL-ECD, rhMER-ECD, rhTyro-3 and BSA (negative control) was measured by ELISA. 96-w half-area plates (Costar) were coated with 25 μl of rhAXL-ECD, rhMER-ECD, rhTyro-3 or BSA at 5 μg/ml in PBS and incubated overnight at 4° C. Microplates were washed 3 times with PBS, blocked with PBS-BSA 1%, and 25 μl of a 10 μg/ml diluted in PBS-BSA 1% were added and incubated at 37° C., 5% CO₂ for 2 hours. Plates were washed 4 times with PBS-TWEEN™ 20 0.05% and incubated for one hour at 37° C., 5% CO₂ with 25 μl of secondary antibody alkaline phosphatase conjugated F(ab)′2 goat anti-mouse IgG (H+L) (Jackson Immunoresearch) diluted 1/5000 in blocking buffer. After 4 washes with PBS-Tween 20 0.05%, 25 μl of a 1 mg/ml pN PP substrate solution was added and further incubated for one hour at 37° C. OD405 nm measurements were done using a microplate reader (Spectramax 340 PC, Molecular Devices).

OD405 nm [OD405] | Binder
0 | B5
0 | B6
0 | B7
0 | B1
0 | B2

Target: T8, BSA (UniProt P02769 25-607)
T8 construct: also called BSA (negative control)
T8 sequence (P02769 25-607 limits assumed): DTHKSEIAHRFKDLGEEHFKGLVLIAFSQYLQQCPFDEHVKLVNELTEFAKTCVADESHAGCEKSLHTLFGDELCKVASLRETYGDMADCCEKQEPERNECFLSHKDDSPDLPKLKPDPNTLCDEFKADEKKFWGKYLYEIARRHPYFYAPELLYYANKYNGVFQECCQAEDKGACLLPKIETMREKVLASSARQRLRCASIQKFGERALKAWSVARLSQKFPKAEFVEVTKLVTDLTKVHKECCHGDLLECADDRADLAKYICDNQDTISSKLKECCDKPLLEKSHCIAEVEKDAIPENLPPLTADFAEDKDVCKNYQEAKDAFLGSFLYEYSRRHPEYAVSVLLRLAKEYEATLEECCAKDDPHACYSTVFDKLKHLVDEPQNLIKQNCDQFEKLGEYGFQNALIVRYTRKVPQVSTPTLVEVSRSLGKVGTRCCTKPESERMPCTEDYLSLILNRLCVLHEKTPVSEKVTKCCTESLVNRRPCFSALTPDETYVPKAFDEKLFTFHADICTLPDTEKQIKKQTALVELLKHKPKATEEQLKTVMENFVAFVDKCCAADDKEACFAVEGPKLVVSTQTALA
Assay: ELISA, antigen coated at 5 µg/ml, mAb 10 µg/ml
Experimental: as §2

OD405 nm [OD405] | Binder
0 | B5
0 | B6
0 | B7
0 | B1
0 | B2

Target: T4, rhTyro-3
Assay: ELISA, antigen coated at 5 µg/ml, mAb 10 µg/ml
Experimental: as §2

OD405 nm [OD405] | Binder
0 | B5
0 | B6
0 | B7
0 | B1
0 | B2

Target: T5, AXL fragment # 7 (AXL amino acids …)
Assay: yeast surface display of hAXL fragments (Aga2-HA-(hAXL)-MYC), whole yeast cell ELISA, signal normalised to anti-MYC
From the text: as §1

binding result | Binder
binds | B1
binds | B2

Target: T6, AXL fragment # 1 (AXL amino acids …)
Assay: as above
From the text: as §1

binding result | Binder
binds | B1
binds | B2
